Assays:
Assay in all cases: SPR
Human EphA3 Fc fusion = biological target: T1, Human EphA3 Fc fusion (Human, UniProt P29320 21-541, limits assumed)
T1 construct: SPR; R&D Systems 6444-A3
T1 sequence (looked up): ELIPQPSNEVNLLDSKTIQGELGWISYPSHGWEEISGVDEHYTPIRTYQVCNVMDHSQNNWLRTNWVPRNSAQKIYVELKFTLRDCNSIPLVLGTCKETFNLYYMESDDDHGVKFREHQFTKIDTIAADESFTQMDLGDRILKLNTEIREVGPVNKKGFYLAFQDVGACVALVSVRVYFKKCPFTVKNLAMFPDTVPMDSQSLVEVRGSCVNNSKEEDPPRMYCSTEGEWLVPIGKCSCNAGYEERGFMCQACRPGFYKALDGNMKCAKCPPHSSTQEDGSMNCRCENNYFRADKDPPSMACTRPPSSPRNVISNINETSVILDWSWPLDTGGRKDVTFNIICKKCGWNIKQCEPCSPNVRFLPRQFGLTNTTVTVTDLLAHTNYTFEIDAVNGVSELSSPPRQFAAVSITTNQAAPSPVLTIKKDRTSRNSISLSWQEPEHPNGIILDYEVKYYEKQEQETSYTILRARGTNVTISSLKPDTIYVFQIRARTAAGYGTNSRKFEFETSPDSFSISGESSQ

[1] = biological target: T2, Human EphA5, biotinylated (Human, UniProt P54756 25-573, limits assumed, 3.1 mol biotin/monomer)
T2 construct: SPR; R&D Systems 3036-A5

Human EphA7 Fc fusion = biological target: T3, Human EphA7 Fc fusion (Human, UniProt Q15375 28-555, limits assumed)
T3 construct: SPR; R&D Systems 6756-A7
T3 sequence (looked up): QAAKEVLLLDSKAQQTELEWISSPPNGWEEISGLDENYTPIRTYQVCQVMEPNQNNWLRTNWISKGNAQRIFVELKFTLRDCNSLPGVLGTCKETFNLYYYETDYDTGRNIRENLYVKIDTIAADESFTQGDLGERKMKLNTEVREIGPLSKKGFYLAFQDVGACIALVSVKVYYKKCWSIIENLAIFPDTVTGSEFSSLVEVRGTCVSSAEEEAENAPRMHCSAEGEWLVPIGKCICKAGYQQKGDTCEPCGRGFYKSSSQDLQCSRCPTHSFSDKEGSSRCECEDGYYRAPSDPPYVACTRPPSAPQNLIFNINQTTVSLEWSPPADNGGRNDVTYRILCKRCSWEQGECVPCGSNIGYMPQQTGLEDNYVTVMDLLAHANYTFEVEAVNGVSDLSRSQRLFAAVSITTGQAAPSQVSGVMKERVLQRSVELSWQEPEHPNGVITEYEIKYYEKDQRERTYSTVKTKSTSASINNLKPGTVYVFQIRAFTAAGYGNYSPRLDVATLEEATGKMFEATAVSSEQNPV

Human EphB4 Fc fusion = biological target: T4, Human EphB4 Fc fusion (Human, UniProt P54760 16-539)
T4 construct: SPR; Sino Biologics 10235-H02H
T4 sequence (looked up): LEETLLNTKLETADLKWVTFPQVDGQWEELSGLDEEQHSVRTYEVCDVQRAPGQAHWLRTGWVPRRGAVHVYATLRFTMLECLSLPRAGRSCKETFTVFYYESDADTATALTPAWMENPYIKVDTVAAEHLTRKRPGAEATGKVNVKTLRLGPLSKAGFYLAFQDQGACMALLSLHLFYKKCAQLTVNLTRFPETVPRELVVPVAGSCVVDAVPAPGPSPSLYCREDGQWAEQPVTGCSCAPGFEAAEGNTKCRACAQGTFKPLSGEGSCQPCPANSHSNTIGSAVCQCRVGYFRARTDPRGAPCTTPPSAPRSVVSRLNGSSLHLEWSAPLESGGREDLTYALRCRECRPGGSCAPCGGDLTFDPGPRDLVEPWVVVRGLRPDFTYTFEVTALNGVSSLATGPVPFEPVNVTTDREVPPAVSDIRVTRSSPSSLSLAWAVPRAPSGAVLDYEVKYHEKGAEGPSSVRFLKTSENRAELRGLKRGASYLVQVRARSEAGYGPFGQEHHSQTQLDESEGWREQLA

Mouse EphA3 Fc fusion = biological target: T5, Mouse EphA3 Fc fusion (Mouse, UniProt P29319 21-540)
T5 construct: SPR; Sino Biologics 51122-M02H
T5 sequence (looked up): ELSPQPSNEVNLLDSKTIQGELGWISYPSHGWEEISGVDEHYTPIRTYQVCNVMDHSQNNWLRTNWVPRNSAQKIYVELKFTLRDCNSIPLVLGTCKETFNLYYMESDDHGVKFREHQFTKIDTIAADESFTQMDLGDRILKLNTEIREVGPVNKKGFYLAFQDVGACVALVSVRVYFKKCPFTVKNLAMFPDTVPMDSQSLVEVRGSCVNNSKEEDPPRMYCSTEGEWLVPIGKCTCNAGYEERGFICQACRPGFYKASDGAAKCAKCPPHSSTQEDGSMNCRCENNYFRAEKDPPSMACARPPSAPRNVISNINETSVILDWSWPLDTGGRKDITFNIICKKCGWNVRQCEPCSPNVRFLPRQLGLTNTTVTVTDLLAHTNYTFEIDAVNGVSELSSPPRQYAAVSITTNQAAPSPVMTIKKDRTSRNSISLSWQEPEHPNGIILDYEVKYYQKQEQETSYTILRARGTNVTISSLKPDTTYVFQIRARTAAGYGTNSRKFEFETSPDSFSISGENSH

Rat EphB1 Fc fusion = biological target: T6, Rat EphB1 Fc fusion (Rat, UniProt P09759 18-540, limits assumed)
T6 construct: SPR; R&D Systems 1596-B1
T6 sequence (looked up): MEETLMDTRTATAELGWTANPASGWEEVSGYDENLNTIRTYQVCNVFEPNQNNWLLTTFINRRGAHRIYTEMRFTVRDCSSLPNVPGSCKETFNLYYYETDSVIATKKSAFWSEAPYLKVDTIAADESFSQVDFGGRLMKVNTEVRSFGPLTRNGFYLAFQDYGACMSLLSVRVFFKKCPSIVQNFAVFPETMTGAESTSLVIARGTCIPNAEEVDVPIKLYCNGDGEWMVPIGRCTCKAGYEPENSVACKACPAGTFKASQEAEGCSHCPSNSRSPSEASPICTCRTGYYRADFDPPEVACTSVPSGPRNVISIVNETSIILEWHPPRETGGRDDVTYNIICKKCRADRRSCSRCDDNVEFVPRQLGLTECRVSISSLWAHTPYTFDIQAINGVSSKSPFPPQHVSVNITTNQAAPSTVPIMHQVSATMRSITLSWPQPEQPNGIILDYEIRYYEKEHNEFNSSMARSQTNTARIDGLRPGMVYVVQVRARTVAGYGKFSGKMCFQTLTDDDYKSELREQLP

Measured: binding result

T2 sequence (P54756 25-573 limits assumed): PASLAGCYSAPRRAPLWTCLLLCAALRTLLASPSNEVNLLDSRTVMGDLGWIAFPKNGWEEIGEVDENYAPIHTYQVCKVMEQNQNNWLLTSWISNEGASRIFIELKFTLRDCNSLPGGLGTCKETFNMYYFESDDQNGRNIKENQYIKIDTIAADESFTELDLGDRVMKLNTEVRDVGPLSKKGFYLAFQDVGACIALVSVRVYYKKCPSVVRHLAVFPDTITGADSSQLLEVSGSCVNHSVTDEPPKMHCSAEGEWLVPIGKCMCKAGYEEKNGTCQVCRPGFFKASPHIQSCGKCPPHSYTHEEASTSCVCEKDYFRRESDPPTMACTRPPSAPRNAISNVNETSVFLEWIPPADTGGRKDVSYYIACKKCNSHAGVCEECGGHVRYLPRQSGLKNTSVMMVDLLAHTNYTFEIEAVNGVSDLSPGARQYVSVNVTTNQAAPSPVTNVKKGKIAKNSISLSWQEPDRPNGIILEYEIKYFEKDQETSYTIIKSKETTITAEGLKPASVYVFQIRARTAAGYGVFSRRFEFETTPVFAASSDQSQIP

B1: BCY6082 (peptide)
peptide: AXDCPLVNPLCLHPGWTC
modifications: not fully specified; as BCY6014 (N-terminal (β-Ala)-Sar10; HArg; TATA scaffold on the 3 Cys) + DM1-SS(SO3H)-
notes: Bicycle drug conjugate (BDC)
no binding: Human EphA3 Fc fusion | [1] | Human EphA7 Fc fusion | Human EphB4 Fc fusion | Mouse EphA3 Fc fusion | Rat EphB1 Fc fusion

B2: BCY6033 (peptide)
peptide: AXDCPLVNPLCLHPGWTC
modifications: not fully specified; as BCY6014 (N-terminal (β-Ala)-Sar10; HArg; TATA scaffold on the 3 Cys) + ValCit-MMAE
notes: Bicycle drug conjugate (BDC)
no binding: Human EphA3 Fc fusion | [1] | Human EphA7 Fc fusion | Human EphB4 Fc fusion | Mouse EphA3 Fc fusion | Rat EphB1 Fc fusion
